The experiment deals with LhgR, L-2-HG catabolism regulator of Pseudomonas putida W619 (His6-tagged) (Pseudomonas putida W619). Description: SEC.

In turn, “LhgR, L-2-HG catabolism regulator of Pseudomonas putida W619 (His6-tagged) (natural protein)” had a stoichiometry N of 2.

(Values after doi:10.1101/2020.07.07.187567.)
